Target: microtubules (Example 3)

B1: Drosophila kinesin heavy chain fragment containing amino acids 5-351 with a C-terminal hexahistidine tag (protein)
chain: REIPAEDSIKVVCRFRPLNDSEEKAGSKFVVKFPNNVEENCISIAGKVYLFDKVFKPNASQEKVYNEAAKSIVTDVLAGYNGTIFAYGQTSSGKTHTMEGVIGDSVKQGIIPRIVNDIFNHIYAMEVNLEFHIKVSYYEIYMDKIRDLLDVSKVNLSVHEDKNRVPYVKGATERFVSSPEDVFEVIEEGKSNRHIAVTNMNEHSSRSHSVFLINVKQENLENQKKLSGKLYLVDLAGSEKVSKTGAEGTVLDEAKNINKSLSALGNVISALADGNKTHIPYRDSKLTRILQESLGGNARTTIVICCSPASFNESETKSTLDFGRRAKTVKNVVCVNEELTAEEWKRRHHHHHH
stimulation of the basal ATPase rate: 1,000-fold stimulation of the basal ATPase rate

Source: patent publication US20080096225
